Results from patent CN108503708A (BEIJING WISDOMAB BIOTECHNOLOGY CO LTD; GENRIX SHANGHAI …, dated 2018).
Residue numbers refer to the chain shown, from its start.

B1: H11E5+L25B8 (affinity-matured variant of hS2C3) (antibody, V domains shown)
VH: QVQLVQSGAEVKKPGASVKVSCKASGYTFTDYYMHWVRQAPGQRLEWMGWIYPSSGNTKYAQKFKDRVTMTRDTSTSTVYMELSSLRSEDTAVYYCARREEDYFDYWGQGTLVTVSS
VL: DIVMTQSPDSLAVSLGERATINCKSSQSLLYSSNKKNYLTWYQQKPGQPPKLLIYWASTRESGVPDRFSGSGSGTDFTLTISSLQAEDVAVYYCQQFYAYPISFGQGTKLEIK
notes: Humanized monoclonal antibody
B2: S2H2 (mouse scFv clone displayed on phage) (scFv)
scFv: QVQLQQPGAEVVKPGASVKMSCKASGYTLSSYWMHWVKQRPGQGLEWIGTIDRSDSYISYNQKFKGKATLTVDTSSGTVYMQLNSLTSEDSAVYYCTRGGPYGSKMMDNWGQGTSVTVSSGGGGSGGGGSGGGGSDIQMNQSPSSLSASLGDTITITCHASQNINVWLSWYQQKPGNIPKLLIYKASNLHTGVPSRFSGSGSGTGFTLTISSLQPEDIATYYCQQGQSYPLTFGTGTKLELK
notes: also called 鼠单链抗体S2H2; 鼠单抗S2H2
B3: S4D12 (mouse scFv clone displayed on phage) (scFv)
scFv: QVQLQQPGAELVKPGASVKMSCKASGYTFTNYWMHWVKQRPGQGLEWIGVIAPSDNYTNYNQKFQGKATLTVDTSSSTAYMQLSSLTSEDSAVYYCTKGGKYSMDYWGQGTSVTVSSGGGGSGGGGSGGGGSDVLMTQTPLSLPVSLGDQASISCRSSQSIVHSNGNTYLEWYLQKPGQSPKLLIYKVSNRFSGVPDRFSGSGSGTDFTLKISRVEAEDLGVYYCFQGSHVPFTFGSGTKLEIK
notes: also called 鼠单链抗体S4D12; 鼠单抗S4D12
B4: S2C3 (mouse scFv clone displayed on phage) (scFv)
scFv: QIQLQQSGPELVKPGASVKISCKASGYTFTDYYMHWVKQRPGQGLEWIGWINPSSGNTKYAQKFQDKATLTVATSSSTAYMQLSSLTSEDTAVYFCARREEDYFDYWGQGTLVTVSSGGGGSGGGGSGGGGSDIVMSQSPSSLAVSVGEKVTMSCKSSQSLLYPSNKKNYLTWYQQKPGQSPKLLIYWASTRESGVPDRFTGSGSGTDFTLTISSVKAEDLAVYYCQEYYAYPLSFGAGTKLEIK
notes: also called 鼠单链抗体S2C3; 鼠单抗S2C3
B5: hS2C3-IgG4 (humanized S2C3) (antibody, V domains shown)
VH: B1 VH with Y52N, K65Q
VL: B1 VL with S32P, Q96E, F97Y, I102L
B6: hS4D12-IgG4 (humanized S4D12) (antibody, V domains shown)
VH: QVQLVQSGAEVKKPGASVKVSCKASGYTFTNYWMHWVRQRPGQGLEWIGVIAPSDNYTNYNQKFQGRVTMTVDTSTSTVYMELSSLRSEDTAVYYCTKGGKYSMDYWGQGTTVTVSS
VL: DIVMTQTPLSLPVTPGEPASISCRSSQSIVHSNGNTYLEWYLQKPGQSPQLLIYKVSNRFSGVPDRFSGSGSGTDFTLKISRVEAEDVGVYYCFQGSHVPFTFGQGTKLEIK
B7: S2C3-IgG4 (mouse-human chimeric antibody, human IgG4-kappa) (antibody, V domains shown)
VH: QIQLQQSGPELVKPGASVKISCKASGYTFTDYYMHWVKQRPGQGLEWIGWINPSSGNTKYAQKFQDKATLTVATSSSTAYMQLSSLTSEDTAVYFCARREEDYFDYWGQGTLVTVSS
VL: DIVMSQSPSSLAVSVGEKVTMSCKSSQSLLYPSNKKNYLTWYQQKPGQSPKLLIYWASTRESGVPDRFTGSGSGTDFTLTISSVKAEDLAVYYCQEYYAYPLSFGAGTKLEIKR
notes: also called 人-鼠嵌合单抗S2C3
B8: S4D12-IgG4 (mouse-human chimeric antibody, human IgG4-kappa) (antibody, V domains shown)
VH: QVQLQQPGAELVKPGASVKMSCKASGYTFTNYWMHWVKQRPGQGLEWIGVIAPSDNYTNYNQKFQGKATLTVDTSSSTAYMQLSSLTSEDSAVYYCTKGGKYSMDYWGQGTSVTVSS
VL: DVLMTQTPLSLPVSLGDQASISCRSSQSIVHSNGNTYLEWYLQKPGQSPKLLIYKVSNRFSGVPDRFSGSGSGTDFTLKISRVEAEDLGVYYCFQGSHVPFTFGSGTKLEIKR
notes: also called 人-鼠嵌合单抗S4D12
B9: H10C7+L25B8 (affinity-matured variant of hS2C3) (antibody, V domains shown)
VH: B1 VH with S54G, K59R, A61S
VL: B1 VL
notes: Humanized monoclonal antibody
B10: S2H2-IgG4 (mouse-human chimeric antibody, human IgG4-kappa) (antibody, V domains shown)
VH: QVQLQQPGAEVVKPGASVKMSCKASGYTLSSYWMHWVKQRPGQGLEWIGTIDRSDSYISYNQKFKGKATLTVDTSSGTVYMQLNSLTSEDSAVYYCTRGGPYGSKMMDNWGQGTSVTVSS
VL: DIQMNQSPSSLSASLGDTITITCHASQNINVWLSWYQQKPGNIPKLLIYKASNLHTGVPSRFSGSGSGTGFTLTISSLQPEDIATYYCQQGQSYPLTFGTGTKLELKR
notes: also called 人-鼠嵌合单抗S2H2
B11: Hu5F9-G4 (humanized anti-CD47 monoclonal antibody) (antibody, human IgG4, V domains shown)
VH: QVQLVQSGAEVKKPGASVKVSCKASGYTFTNYNMHWVRQAPGQRLEWMGTIYPGNDDTSYNQKFKDRVTITADTSASTAYMELSSLRSEDTAVYYCARGGYRAMDYWGQGTLVTVSS
VL: B6 VL with T7S, H31Y, E39G, F101Y
notes: Prepared after US 9017675B2; labelled IgG4; also called Hu5F9-IgG4; hu5F9-IgG4

These binders were tested against T1, huCD47-D1-his (recombinant human CD47 extracellular region D1 with C-terminal His tag) (human (homo sapiens), UniProt Q08722 19-141) (assay: SPR BIAcore, against hS2C3 as reference).
T1 construct: Expressed in HEK293 cells; analyte in the Biacore measurements and antigen of the phage panning; also called huCD47-his; hCD47; not shown: His tag added at the C-terminus

Row | Binder | fold improvement of affinity over hS2C3 [fold]
1 | B1 | 10

The binders below were run against T1, huCD47-D1-his (recombinant human CD47 …) (assay: solid-phase phage panning on huCD47-D1-his, three rounds).

Row | Binder | binding result
2 | B2 | binds
3 | B3 | binds
4 | B4 | binds

The binders below were run against T1, huCD47-D1-his (recombinant human CD47 …) (assay: SPR BIAcore, by the method of Example 3 (antibody captured, huCD47-D1-his analyte)).

Row | Binder | Kd [nM] | koff [s⁻¹] | kon [M⁻¹ s⁻¹]
5 | B5 | 10.1 | 0.011 | 1.09e+06
6 | B6 | 9.6 | 0.0118 | 1.22e+06
7 | B7 | 18.5 | 0.0205 | 1.11e+06
8 | B8 | 8.56 | 0.011 | 1.28e+06

Molecular target: T1, huCD47-D1-his (recombinant human CD47 …)
Test: as above
Remark: another data set of the same source

Row | Binder | Kd [nM] | koff [s⁻¹] | kon [M⁻¹ s⁻¹]
9 | B1 | 0.807 | 0.00096 | 1.19e+06
10 | B9 | 1.11 | 0.00115 | 1.03e+06
11 | B5 | 9.55 | 0.0103 | 1.08e+06

Each binder was assayed against T2, hCD47-mFc (human CD47 extracellular region D1 fused to mouse IgG2a Fc) (human (homo sapiens)) (assay: competition ELISA: hCD47-mFc coated, fixed hCD172a-D1M1-His as competitor, antibody titrated).
T2 construct: no linker is stated

Row | Binder | IC50 [nM]
12 | B10 | 2 to 5
13 | B7 | 2 to 5

What follows are binders tested against T2, hCD47-mFc (human CD47 extracellular …) (assay: competition ELISA by the method of Example 3 (hCD47-mFc coated, hCD172a-D1M1-His as competitor)).

Row | Binder | IC50 [nM]
14 | B1 | < 5
15 | B9 | < 5
16 | B5 | < 5
17 | B6 | < 5

Molecular target: T2, hCD47-mFc (human CD47 extracellular …)
Test: competition ELISA: hCD47-mFc coated, fixed hCD172a-D1M1-His as competitor, antibody titrated
Remark: another data set of the same source

Row | Binder | IC50 [nM]
18 | B10 | 2.08
19 | B11 | 9.61
20 | B7 | 5.19
21 | B8 | 3.89

What follows are binders tested against T1, huCD47-D1-his (recombinant human CD47 …) (assay: SPR Biacore X100, antibody captured via anti-human Fc on CM5, huCD47-D1-his as analyte, 25 C).

Row | Binder | Kd [nM] | koff [s⁻¹] | kon [M⁻¹ s⁻¹]
22 | B10 | 9.71 | 0.00696 | 717000
23 | B7 | 25.1 | 0.0222 | 886000
24 | B8 | 10.1 | 0.0142 | 1.41e+06

Molecular target: T2, hCD47-mFc (human CD47 extracellular …)
Test: competition ELISA by the method of Example 3 (hCD47-mFc coated, hCD172a-D1M1-His as competitor)
Remark: another data set of the same source

Row | Binder | IC50 [nM]
25 | B5 | 3.36
26 | B11 | 4.16
27 | B6 | 2.68

Molecular target: T2, hCD47-mFc (human CD47 extracellular …)
Test: as above
Remark: another data set of the same source

Row | Binder | IC50 [nM]
28 | B1 | 4.13
29 | B9 | 4.51
30 | B5 | 4.13
